Literature values in US20110218118A1, “PEPTIDE MODULATORS OF CELLULAR PHENOTYPE AND BI-NUCLEIC ACID FRAGMENT LIBRARY” (PHYLOGICA LIMITED, priority 2004, published 2011).

Target: T1, human cyclin E (Homo sapiens, UniProt P24864)
T1 construct: expressed in transfected cells; host or cells: Saccharomyces cerevisiae strain AZ-1 (huCDK2::his2), mated with PRT 51
Conditions: yeast over-expressing human cyclin E and co-expressing human Cdk2

T1 sequence (P24864 16-410): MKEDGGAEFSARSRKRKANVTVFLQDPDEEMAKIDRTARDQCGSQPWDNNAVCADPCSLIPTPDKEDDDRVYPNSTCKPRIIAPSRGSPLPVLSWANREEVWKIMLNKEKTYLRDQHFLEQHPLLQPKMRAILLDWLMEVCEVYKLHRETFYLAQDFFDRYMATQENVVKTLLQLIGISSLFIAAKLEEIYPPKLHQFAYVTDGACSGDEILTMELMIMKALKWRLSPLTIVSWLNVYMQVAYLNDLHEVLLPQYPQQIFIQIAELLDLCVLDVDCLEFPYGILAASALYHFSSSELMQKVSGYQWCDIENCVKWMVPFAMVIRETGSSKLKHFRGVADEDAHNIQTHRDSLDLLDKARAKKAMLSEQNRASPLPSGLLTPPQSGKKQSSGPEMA

In the case of “p21^CIP1: positive control protein, cDNA (SEQ ID NO: 60) cloned as in-frame fusion into the pMF4-5 plasmid”, the “rescue of the cyclin E lethal phenotype in yeast” value is given as “rescue the lethal phenotype in yeast”.
